Results published in patent publication EP4782465A1.

Biological target: Human insulin receptor subtype B (human), P06213
Experiment: cell-based or functional assay

Human insulin receptor subtype B activity (EC50): 422 nM
B1: Fusion protein 1 (insulin analog 1 + L2 + IgG2 Fc1) (Fc fusion)
chain: FVNQHLCGEHLVEALYLVCGERGFHYGGGGGGSGGGGGIVEQCCESICSLEQLENYCGGGGGQGGGGQGGGGQGGGGGECPPCPAPPVAGPSVFLFPPKPKDTLMISRTPEVTCVVVDVSHEDPEVQFNWYVDGVEVHNAKTKPREEQFNSTFRVVSVLTVVHQDWLNGKEYKCKVSNKGLPAPIEKTISKTKGQPREPQVYTLPPSREEMTKNQVSLTCLVKGFYPSDIAVEWESNGQPENNYKTTPPMLDSDGSFFLYSKLTVDKSRWQQGNVFSCSVMHEALHNHYTQKSLSLSPG
